This is an account of results in PMC5612113.

B1: Notch2 TM helix-containing fragment, Notch2(1666–1710) [human] / itself (parent)
chain: VVSESLTPERTQLLYLLAVAVVIILFIILLGVIMAKRKRKHGSLW
B2: Notch1 TM helix-containing fragment, Notch1(1721–1767) [human] / itself (parent)
chain: VQSETVEPPPPAQLHFMYVAAAAFVLLFFVGCGVLLSRKRRRQHGQL
B3: Notch3 TM helix-containing fragment, Notch3(1629–1675) [human] / itself (parent)
chain: VRGEPLEPPEPSVPLLPLLVAGAVLLLVILVLGVMVARRKREHSTLW
B4: Notch4 TM helix-containing fragment, Notch4(1432–1481) [human] / itself (parent)
chain: VHPHAGTAPPANQLPWPVLCSPVAGVILLALGALLVLQLIRRRRREHGAL

The variants in one assay derive from B1. Briefly: Tango assay. The following applies: with itself;; read off a plot.
For the variant VVSESLTPERTQLLYLLPPAVVIILFIILLGVIMAKRKRKHGSLW, the response (relative activity (C99-WT = 100)) was found to be 82. The same measure, in the same setting: to VVSESLTPERTQLLYLLAVAVVIILFIPPLGVIMAKRKRKHGSLW belongs 53. On the same count and under the same terms, to VVSESLTPERTQLLYLLAVAVVIILPPILLGVIMAKRKRKHGSLW belongs 46.

The variants in another assay derive from B2. Briefly: Tango assay. Particulars: with itself;; read off a plot.
As for VQSETVEPPPPAQLHFMYVPPAAFVLLFFVGCGVLLSRKRRRQHGQL, the response (relative activity (C99-WT = 100)) is 130. On the same count and under the same terms, to VQSETVEPPPPAQLHFMYVAAAAFVLLPPVGCGVLLSRKRRRQHGQL belongs 93. Same read-out and setting: in the case of VQSETVEPPPPAQLHFMYVAAAAFVLLFFPPCGVLLSRKRRRQHGQL it was 91.

In the next assay the parent is B3. Briefly: Tango assay. Particulars: with itself;; read off a plot.
Take VRGEPLEPPEPSVPLLPLLVAGAVLLLPPLVLGVMVARRKREHSTLW: the response (relative activity (C99-WT = 100)) was 62. The same measure, in the same setting: to VRGEPLEPPEPSVPLLPLLPPGAVLLLVILVLGVMVARRKREHSTLW belongs 84; to VRGEPLEPPEPSVPLLPLLVAGAVLLLVIPPLGVMVARRKREHSTLW, 91.

The variants in the next assay derive from B4. Briefly: Tango assay. Particulars: with itself;; read off a plot.
For VHPHAGTAPPANQLPWPVLCSPVAGVILLALGPPLVLQLIRRRRREHGAL, the response (relative activity (C99-WT = 100)) was 140. Still for that read-out and setting: to VHPHAGTAPPANQLPWPVLCSPPPGVILLALGALLVLQLIRRRRREHGAL belongs 130. Same read-out and setting: to VHPHAGTAPPANQLPWPVLCSPVAGVILLAPPALLVLQLIRRRRREHGAL belongs 93.
